From US20060223099A1 (BAYLOR COLLEGE OF MEDICINE, published 2006)

Biological target: T1, SV40 large T-antigen (SV40, UniProt P03070 87-708)
T1 construct: Control partner in the yeast-two-hybrid assay; fusion construct not described
Experiment: targeted yeast-two-hybrid, negative control

T1 sequence (P03070 87-708 limits assumed): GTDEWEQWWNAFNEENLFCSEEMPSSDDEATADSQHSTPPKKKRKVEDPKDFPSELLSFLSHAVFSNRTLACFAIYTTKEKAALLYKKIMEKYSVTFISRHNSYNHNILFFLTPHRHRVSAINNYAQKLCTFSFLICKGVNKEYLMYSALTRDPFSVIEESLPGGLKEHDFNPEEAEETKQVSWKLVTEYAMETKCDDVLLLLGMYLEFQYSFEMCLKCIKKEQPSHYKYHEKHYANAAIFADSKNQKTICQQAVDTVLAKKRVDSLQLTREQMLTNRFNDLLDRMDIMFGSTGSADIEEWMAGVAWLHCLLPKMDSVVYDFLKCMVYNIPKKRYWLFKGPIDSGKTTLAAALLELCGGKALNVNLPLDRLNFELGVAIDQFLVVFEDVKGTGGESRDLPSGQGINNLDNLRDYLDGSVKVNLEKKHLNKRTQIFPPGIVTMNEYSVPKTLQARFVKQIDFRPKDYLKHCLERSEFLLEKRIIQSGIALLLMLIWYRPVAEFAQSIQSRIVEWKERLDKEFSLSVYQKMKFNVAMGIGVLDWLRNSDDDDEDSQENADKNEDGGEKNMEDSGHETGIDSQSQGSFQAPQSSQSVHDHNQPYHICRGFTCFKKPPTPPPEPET

B1: human Lamin C (other)
chain: SEEVVSREVSGIKAAYEAELGDARKTLDSVAKERARLQLELSKVREEFKELKARNTKKEGDLIAAQARLKDLEALLNSKEAALSTALSEKRTLEGELHDLRGQVAKLEAALGEAKKQLQDEMLRRVDAENRLQTMKEELDFQKNIYSEELRETKRRHETRLVEID
notes: Negative-control partner in the yeast-two-hybrid assay; fusion construct not described
B1: no binding.
